Measurements: US20140087995A1 (published 2014)
Numbered stars: 1 amine (or outer) side, 2 acyl side, 3 side chain; on linkers, the order of the positions; unused ones are H or OH. Bridge positions count the residues as written; N and C are the ends. Side chains are listed from the residue outwards. Ends that are not written are not given here. * marks the point of attachment. C20 diacid = O=C(O)CCCCCCCCCCCCCCCCCCC(=O)*; γGlu = O=C(O)[C@H](CCC(=O)[*:2])N[*:1]

T1: human calcitonin receptor (human, UniProt P30988 25-474)
T1 sequence (looked up): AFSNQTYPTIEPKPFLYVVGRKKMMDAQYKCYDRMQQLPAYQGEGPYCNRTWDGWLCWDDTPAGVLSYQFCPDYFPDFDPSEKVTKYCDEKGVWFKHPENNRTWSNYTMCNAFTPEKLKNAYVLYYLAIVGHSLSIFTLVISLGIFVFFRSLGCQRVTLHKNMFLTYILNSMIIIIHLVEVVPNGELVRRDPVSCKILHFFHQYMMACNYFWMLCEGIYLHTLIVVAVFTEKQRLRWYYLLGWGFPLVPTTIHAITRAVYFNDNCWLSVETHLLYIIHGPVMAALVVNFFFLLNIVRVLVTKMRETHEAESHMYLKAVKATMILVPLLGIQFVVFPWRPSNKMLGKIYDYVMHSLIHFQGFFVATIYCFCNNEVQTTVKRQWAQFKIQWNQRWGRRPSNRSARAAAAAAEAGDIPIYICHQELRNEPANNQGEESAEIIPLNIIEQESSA

T2: human amylin receptor (amylin 3(a) receptor: human calcitonin receptor co-expressed with RAMP-3) (human, UniProt P30988 25-474; O60896 24-148, limits assumed)
T2 construct: whole, on cells; Used as cell membranes prepared from the Amylin 3(a)/CRE-luc BHK cells (Assay V); also called hAmylin-R; hAmylinR
T2 sequence (looked up) 1: T1 sequence (looked up)
T2 sequence (looked up) 2: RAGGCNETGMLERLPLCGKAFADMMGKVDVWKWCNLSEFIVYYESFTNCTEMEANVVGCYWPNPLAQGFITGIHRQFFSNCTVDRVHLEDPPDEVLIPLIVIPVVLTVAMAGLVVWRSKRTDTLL

B1: N^ε1-[(4S)-4-carboxy-4-[[(4S)-4-carboxy-4-(19-carboxynonadecanoylamino)butanoyl]amino]butanoyl]-[Glu14,Arg17,Pro21,Pro27,Pro34,Glu35,Pro37]-h-amylin (peptide)
peptide: K([γGlu-γGlu-C20 diacid])CNTATCATQRLAEFLRHSSPNFGAIPSSTNVGPETP-NH2
modifications: disulfide 2-7; N-terminus assumed
SMILES: CC[C@H](C)[C@H](NC(=O)[C@H](C)NC(=O)CNC(=O)[C@H](Cc1ccccc1)NC(=O)[C@H](CC(N)=O)NC(=O)[C@@H]1CCCN1C(=O)[C@H](CO)NC(=O)[C@H](CO)NC(=O)[C@H](Cc1c[nH]cn1)NC(=O)[C@H](CCCNC(=N)N)NC(=O)[C@H](CC(C)C)NC(=O)[C@H](Cc1ccccc1)NC(=O)[C@H](CCC(=O)O)NC(=O)[C@H](C)NC(=O)[C@H](CC(C)C)NC(=O)[C@H](CCCNC(=N)N)NC(=O)[C@H](CCC(N)=O)NC(=O)[C@@H](NC(=O)[C@H](C)NC(=O)[C@@H]1CSSC[C@H](NC(=O)[C@@H](N)CCCCNC(=O)CC[C@H](NC(=O)CC[C@H](NC(=O)CCCCCCCCCCCCCCCCCCC(=O)O)C(=O)O)C(=O)O)C(=O)N[C@@H](CC(N)=O)C(=O)N[C@@H]([C@@H](C)O)C(=O)N[C@@H](C)C(=O)N[C@@H]([C@@H](C)O)C(=O)N1)[C@@H](C)O)C(=O)N1CCC[C@H]1C(=O)N[C@@H](CO)C(=O)N[C@@H](CO)C(=O)N[C@H](C(=O)N[C@@H](CC(N)=O)C(=O)N[C@H](C(=O)NCC(=O)N1CCC[C@H]1C(=O)N[C@@H](CCC(=O)O)C(=O)N[C@H](C(=O)N1CCC[C@H]1C(N)=O)[C@@H](C)O)C(C)C)[C@@H](C)O
notes: Synthetic acylated analogue of human amylin
B2: N^ε1-[(4S)-4-carboxy-4-[[(4S)-4-carboxy-4-(19-carboxynonadecanoylamino)butanoyl]amino]butanoyl]-[Glu14,Arg17,Pro21,Pro27,Pro37]-h-amylin (peptide)
peptide: K([γGlu-γGlu-C20 diacid])CNTATCATQRLAEFLRHSSPNFGAIPSSTNVGSNTP-NH2
modifications: disulfide 2-7 (inferred)
notes: Synthetic acylated analogue of human amylin; also called compound 13
B3: N^ε1-[(4S)--4-carboxy-4-(19-carboxynonadecanoylamino)butanoyl]-[Glu14,Arg17,Pro21,Pro27,Pro37]-h-amylin (peptide)
peptide: K([γGlu-C20 diacid])CNTATCATQRLAEFLRHSSPNFGAIPSSTNVGSNTP-NH2
modifications: disulfide 2-7; N-terminus assumed
SMILES: CC[C@H](C)[C@H](NC(=O)[C@H](C)NC(=O)CNC(=O)[C@H](Cc1ccccc1)NC(=O)[C@H](CC(N)=O)NC(=O)[C@@H]1CCCN1C(=O)[C@H](CO)NC(=O)[C@H](CO)NC(=O)[C@H](Cc1c[nH]cn1)NC(=O)[C@H](CCCNC(=N)N)NC(=O)[C@H](CC(C)C)NC(=O)[C@H](Cc1ccccc1)NC(=O)[C@H](CCC(=O)O)NC(=O)[C@H](C)NC(=O)[C@H](CC(C)C)NC(=O)[C@H](CCCNC(=N)N)NC(=O)[C@H](CCC(N)=O)NC(=O)[C@@H](NC(=O)[C@H](C)NC(=O)[C@@H]1CSSC[C@H](NC(=O)[C@@H](N)CCCCNC(=O)CC[C@H](NC(=O)CCCCCCCCCCCCCCCCCCC(=O)O)C(=O)O)C(=O)N[C@@H](CC(N)=O)C(=O)N[C@@H]([C@@H](C)O)C(=O)N[C@@H](C)C(=O)N[C@@H]([C@@H](C)O)C(=O)N1)[C@@H](C)O)C(=O)N1CCC[C@H]1C(=O)N[C@@H](CO)C(=O)N[C@@H](CO)C(=O)N[C@H](C(=O)N[C@@H](CC(N)=O)C(=O)N[C@H](C(=O)NCC(=O)N[C@@H](CO)C(=O)N[C@@H](CC(N)=O)C(=O)N[C@H](C(=O)N1CCC[C@H]1C(N)=O)[C@@H](C)O)C(C)C)[C@@H](C)O
notes: Synthetic acylated analogue of human amylin; also called compound 12
B4: N^ε1-[(4S)-4-carboxy-4-(19-carboxynonadecanoylamino)butanoyl]-[Ala14,Arg17,Pro21,Pro27,Pro34]-h-amylin (peptide)
peptide: K([γGlu-C20 diacid])CNTATCATQRLAAFLRHSSPNFGAIPSSTNVGPNTY-NH2
modifications: disulfide 2-7; N-terminus assumed
SMILES: CC[C@H](C)[C@H](NC(=O)[C@H](C)NC(=O)CNC(=O)[C@H](Cc1ccccc1)NC(=O)[C@H](CC(N)=O)NC(=O)[C@@H]1CCCN1C(=O)[C@H](CO)NC(=O)[C@H](CO)NC(=O)[C@H](Cc1c[nH]cn1)NC(=O)[C@H](CCCNC(=N)N)NC(=O)[C@H](CC(C)C)NC(=O)[C@H](Cc1ccccc1)NC(=O)[C@H](C)NC(=O)[C@H](C)NC(=O)[C@H](CC(C)C)NC(=O)[C@H](CCCNC(=N)N)NC(=O)[C@H](CCC(N)=O)NC(=O)[C@@H](NC(=O)[C@H](C)NC(=O)[C@@H]1CSSC[C@H](NC(=O)[C@@H](N)CCCCNC(=O)CC[C@H](NC(=O)CCCCCCCCCCCCCCCCCCC(=O)O)C(=O)O)C(=O)N[C@@H](CC(N)=O)C(=O)N[C@@H]([C@@H](C)O)C(=O)N[C@@H](C)C(=O)N[C@@H]([C@@H](C)O)C(=O)N1)[C@@H](C)O)C(=O)N1CCC[C@H]1C(=O)N[C@@H](CO)C(=O)N[C@@H](CO)C(=O)N[C@H](C(=O)N[C@@H](CC(N)=O)C(=O)N[C@H](C(=O)NCC(=O)N1CCC[C@H]1C(=O)N[C@@H](CC(N)=O)C(=O)N[C@H](C(=O)N[C@@H](Cc1ccc(O)cc1)C(N)=O)[C@@H](C)O)C(C)C)[C@@H](C)O
notes: also called compound 94
B5: N^ε1-[(4S)-4-carboxy-4-(19-carboxynonadecanoylamino)butanoyl]-[Asp14,Arg17,Pro21,Pro27,Pro34,Arg35]-h-amylin (peptide)
peptide: K([γGlu-C20 diacid])CNTATCATQRLADFLRHSSPNFGAIPSSTNVGPRTY-NH2
modifications: disulfide 2-7; N-terminus assumed
SMILES: CC[C@H](C)[C@H](NC(=O)[C@H](C)NC(=O)CNC(=O)[C@H](Cc1ccccc1)NC(=O)[C@H](CC(N)=O)NC(=O)[C@@H]1CCCN1C(=O)[C@H](CO)NC(=O)[C@H](CO)NC(=O)[C@H](Cc1c[nH]cn1)NC(=O)[C@H](CCCNC(=N)N)NC(=O)[C@H](CC(C)C)NC(=O)[C@H](Cc1ccccc1)NC(=O)[C@H](CC(=O)O)NC(=O)[C@H](C)NC(=O)[C@H](CC(C)C)NC(=O)[C@H](CCCNC(=N)N)NC(=O)[C@H](CCC(N)=O)NC(=O)[C@@H](NC(=O)[C@H](C)NC(=O)[C@@H]1CSSC[C@H](NC(=O)[C@@H](N)CCCCNC(=O)CC[C@H](NC(=O)CCCCCCCCCCCCCCCCCCC(=O)O)C(=O)O)C(=O)N[C@@H](CC(N)=O)C(=O)N[C@@H]([C@@H](C)O)C(=O)N[C@@H](C)C(=O)N[C@@H]([C@@H](C)O)C(=O)N1)[C@@H](C)O)C(=O)N1CCC[C@H]1C(=O)N[C@@H](CO)C(=O)N[C@@H](CO)C(=O)N[C@H](C(=O)N[C@@H](CC(N)=O)C(=O)N[C@H](C(=O)NCC(=O)N1CCC[C@H]1C(=O)N[C@@H](CCCNC(=N)N)C(=O)N[C@H](C(=O)N[C@@H](Cc1ccc(O)cc1)C(N)=O)[C@@H](C)O)C(C)C)[C@@H](C)O
B6: N^ε1-[(4S)-4-carboxy-4-(19-carboxynonadecanoylamino)butanoyl]-[His14,Arg17,Pro21,Pro27,Pro34,Pro37]-h-amylin (peptide)
peptide: K([γGlu-C20 diacid])CNTATCATQRLAHFLRHSSPNFGAIPSSTNVGPNTP-NH2
modifications: disulfide 2-7; N-terminus assumed
SMILES: CC[C@H](C)[C@H](NC(=O)[C@H](C)NC(=O)CNC(=O)[C@H](Cc1ccccc1)NC(=O)[C@H](CC(N)=O)NC(=O)[C@@H]1CCCN1C(=O)[C@H](CO)NC(=O)[C@H](CO)NC(=O)[C@H](Cc1c[nH]cn1)NC(=O)[C@H](CCCNC(=N)N)NC(=O)[C@H](CC(C)C)NC(=O)[C@H](Cc1ccccc1)NC(=O)[C@H](Cc1c[nH]cn1)NC(=O)[C@H](C)NC(=O)[C@H](CC(C)C)NC(=O)[C@H](CCCNC(=N)N)NC(=O)[C@H](CCC(N)=O)NC(=O)[C@@H](NC(=O)[C@H](C)NC(=O)[C@@H]1CSSC[C@H](NC(=O)[C@@H](N)CCCCNC(=O)CC[C@H](NC(=O)CCCCCCCCCCCCCCCCCCC(=O)O)C(=O)O)C(=O)N[C@@H](CC(N)=O)C(=O)N[C@@H]([C@@H](C)O)C(=O)N[C@@H](C)C(=O)N[C@@H]([C@@H](C)O)C(=O)N1)[C@@H](C)O)C(=O)N1CCC[C@H]1C(=O)N[C@@H](CO)C(=O)N[C@@H](CO)C(=O)N[C@H](C(=O)N[C@@H](CC(N)=O)C(=O)N[C@H](C(=O)NCC(=O)N1CCC[C@H]1C(=O)N[C@@H](CC(N)=O)C(=O)N[C@H](C(=O)N1CCC[C@H]1C(N)=O)[C@@H](C)O)C(C)C)[C@@H](C)O
B7: N^ε1-[(4S)-4-carboxy-4-(19-carboxynonadecanoylamino)butanoyl]-[Glu14,Arg17,Pro21,Pro27,Pro34,Pro37]-h-amylin (peptide)
peptide: K([γGlu-C20 diacid])CNTATCATQRLAEFLRHSSPNFGAIPSSTNVGPNTP-NH2
modifications: disulfide 2-7; N-terminus assumed
SMILES: CC[C@H](C)[C@H](NC(=O)[C@H](C)NC(=O)CNC(=O)[C@H](Cc1ccccc1)NC(=O)[C@H](CC(N)=O)NC(=O)[C@@H]1CCCN1C(=O)[C@H](CO)NC(=O)[C@H](CO)NC(=O)[C@H](Cc1c[nH]cn1)NC(=O)[C@H](CCCNC(=N)N)NC(=O)[C@H](CC(C)C)NC(=O)[C@H](Cc1ccccc1)NC(=O)[C@H](CCC(=O)O)NC(=O)[C@H](C)NC(=O)[C@H](CC(C)C)NC(=O)[C@H](CCCNC(=N)N)NC(=O)[C@H](CCC(N)=O)NC(=O)[C@@H](NC(=O)[C@H](C)NC(=O)[C@@H]1CSSC[C@H](NC(=O)[C@@H](N)CCCCNC(=O)CC[C@H](NC(=O)CCCCCCCCCCCCCCCCCCC(=O)O)C(=O)O)C(=O)N[C@@H](CC(N)=O)C(=O)N[C@@H]([C@@H](C)O)C(=O)N[C@@H](C)C(=O)N[C@@H]([C@@H](C)O)C(=O)N1)[C@@H](C)O)C(=O)N1CCC[C@H]1C(=O)N[C@@H](CO)C(=O)N[C@@H](CO)C(=O)N[C@H](C(=O)N[C@@H](CC(N)=O)C(=O)N[C@H](C(=O)NCC(=O)N1CCC[C@H]1C(=O)N[C@@H](CC(N)=O)C(=O)N[C@H](C(=O)N1CCC[C@H]1C(N)=O)[C@@H](C)O)C(C)C)[C@@H](C)O

Target: T1, human calcitonin receptor
Test: cell-based or functional assay

| hCTR funct. EC50 (CRE luciferase reporter, BHK cells) [nM] | Binder |
| --- | --- |
| 0.102 | B1 |
| 0.47 | B2 |
| 0.185 | B3 |

Target: T2, human amylin receptor (amylin 3(a) …)
Test: SPA displacement of 125I-rat amylin, hAmylin 3(a) receptor membranes
Method in brief: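 Membranes from BHK Amylin 3(a)/CRE-luc cells (35 ng/μL final) were mixed with SPA beads and test compounds in 50 mM Hepes pH 7.4 with 1 mM CaCl2, 5 mM MgCl₂, 0.1% OA and 0.02% Tween20. Incubation ran 120 min at 25° C with shaking; IC₅₀ came from one-site competition fitting.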

| IC50 [nM] | Binder |
| --- | --- |
| 0.148 | B4 |
| 0.281 | B5 |
| 0.131 | B6 |
| 0.214 | B7 |
| 0.453 | K([γGlu-γGlu-C20 diacid])CNTATCATQRLADFLRHSSPNFGAIPSSTNVGPRTY-NH2 (disulfide 2-7, also called compound 130) |
